In patent publication US20110091994A1, “Methods for Screening Compounds for Treating and/or Preventing an Hepatitis C Virus Infection” (priority 2008, published 2011):

B1: BCAR1 (protein, UniProt P56945 1-870, looked up)
Breast cancer anti-estrogen …: MNHLNVLAKALYDNVAESPDELSFRKGDIMTVLEQDTQGLDGWWLCSLHGRQGIVPGNRLKILVGMYDKKPAGPGPGPPATPAQPQPGLHAPAPPASQYTPMLPNTYQPQPDSVYLVPTPSKAQQGLYQVPGPSPQFQSPPAKQTSTFSKQTPHHPFPSPATDLYQVPPGPGGPAQDIYQVPPSAGMGHDIYQVPPSMDTRSWEGTKPPAKVVVPTRVGQGYVYEAAQPEQDEYDIPRHLLAPGPQDIYDVPPVRGLLPSQYGQEVYDTPPMAVKGPNGRDPLLEVYDVPPSVEKGLPPSNHHAVYDVPPSVSKDVPDGPLLREETYDVPPAFAKAKPFDPARTPLVLAAPPPDSPPAEDVYDVPPPAPDLYDVPPGLRRPGPGTLYDVPRERVLPPEVADGGVVDSGVYAVPPPAEREAPAEGKRLSASSTGSTRSSQSASSLEVAGPGREPLELEVAVEALARLQQGVSATVAHLLDLAGSAGATGSWRSPSEPQEPLVQDLQAAVAAVQSAVHELLEFARSAVGNAAHTSDRALHAKLSRQLQKMEDVHQTLVAHGQALDAGRGGSGATLEDLDRLVACSRAVPEDAKQLASFLHGNASLLFRRTKATAPGPEGGGTLHPNPTDKTSSIQSRPLPSPPKFTSQDSPDGQYENSEGGWMEDYDYVHLQGKEEFEKTQKELLEKGSITRQGKSQLELQQLKQFERLEQEVSRPIDHDLANWTPAQPLAPGRTGGLGPSDRQLLLFYLEQCEANLTTLTNAVDAFFTAVATNQPPKIFVAHSKFVILSAHKLVFIGDTLSRQAKAADVRSQVTHYSNLLCDLLRGIVATTKAAALQYPSPSAAQDMVERVKELGHSTQQFRRVLGQLAAA
B2: CD68 (protein, UniProt P34810 22-354, looked up)
Macrosialin: NDCPHKKSATLLPSFTVTPTVTESTGTTSHRTTKSHKTTTHRTTTTGTTSHGPTTATHNPTTTSHGNVTVHPTSNSTATSQGPSTATHSPATTSHGNATVHPTSNSTATSPGFTSSAHPEPPPPSPSPSPTSKETIGDYTWTNGSQPCVHLQAQIQIRVMYTTQGGGEAWGISVLNPNKTKVQGSCEGAHPHLLLSFPYGHLSFGFMQDLQQKVVYLSYMAVEYNVSFPHAAQWTFSAQNASLRDLQAPLGQSFSCSNSSIILSPAVHLDLLSLRLQAAQLPHTGVFGQSFSCPSDRSILLPLIIGLILLGLLALVLIAFCIIRRRPSAYQAL
B3: ARS2 (protein, UniProt Q9BXP5 2-876, looked up)
Serrate RNA effector molecule …: GDSDDEYDRRRRDKFRRERSDYDRSRERDERRRGDDWNDREWDRGRERRSRGEYRDYDRNRRERFSPPRHELSPPQKRMRRDWDEHSSDPYHSGYEMPYAGGGGGPTYGPPQPWGHPDVHIMQHHVLPIQARLGSIAEIDLGVPPPVMKTFKEFLLSLDDSVDETEAVKRYNDYKLDFRRQQMQDFFLAHKDEEWFRSKYHPDEVGKRRQEARGALQNRLRVFLSLMETGWFDNLLLDIDKADAIVKMLDAAVIKMEGGTENDLRILEQEEEEEQAGKPGEPSKKEEGRAGAGLGDGERKTNDKDEKKEDGKQAENDSSNDDKTKKSEGDGDKEEKKEDSEKEAKKSSKKRNRKHSGDDSFDEGSVSESESESESGQAEEEKEEAEEALKEKEKPKEEEWEKPKDAAGLECKPRPLHKTCSLFMRNIAPNISRAEIISLCKRYPGFMRVALSEPQPERRFFRRGWVTFDRSVNIKEICWNLQNIRLRECELSPGVNRDLTRRVRNINGITQHKQIVRNDIKLAAKLIHTLDDRTQLWASEPGTPPLPTSLPSQNPILKNITDYLIEEVSAEEEELLGSSGGAPPEEPPKEGNPAEINVERDEKLIKVLDKLLLYLRIVHSLDYYNTCEYPNEDEMPNRCGIIHVRGPMPPNRISHGEVLEWQKTFEEKLTPLLSVRESLSEEEAQKMGRKDPEQEVEKFVTSNTQELGKDKWLCPLSGKKFKGPEFVRKHIFNKHAEKIEEVKKEVAFFNNFLTDAKRPALPEIKPAQPPGPAQILPPGLTPGLPYPHQTPQGLMPYGQPRPPILGYGAGAVRPAVPTGGPPYPHAPYGAGRGNYDAFRGQGGYPGKPRNRMVRGDPRAIVEYRDLDAPDDVDFF
B4: BCAN (protein, UniProt Q96GW7 23-911, looked up)
Brevican core protein: DVLEGDSSEDRAFRVRIAGDAPLQGVLGGALTIPCHVHYLRPPPSRRAVLGSPRVKWTFLSRGREAEVLVARGVRVKVNEAYRFRVALPAYPASLTDVSLALSELRPNDSGIYRCEVQHGIDDSSDAVEVKVKGVVFLYREGSARYAFSFSGAQEACARIGAHIATPEQLYAAYLGGYEQCDAGWLSDQTVRYPIQTPREACYGDMDGFPGVRNYGVVDPDDLYDVYCYAEDLNGELFLGDPPEKLTLEEARAYCQERGAEIATTGQLYAAWDGGLDHCSPGWLADGSVRYPIVTPSQRCGGGLPGVKTLFLFPNQTGFPNKHSRFNVYCFRDSAQPSAIPEASNPASNPASDGLEAIVTVTETLEELQLPQEATESESRGAIYSIPIMEDGGGGSSTPEDPAEAPRTLLEFETQSMVPPTGFSEEEGKALEEEEKYEDEEEKEEEEEEEEVEDEALWAWPSELSSPGPEASLPTEPAAQEESLSQAPARAVLQPGASPLPDGESEASRPPRVHGPPTETLPTPRERNLASPSPSTLVEAREVGEATGGPELSGVPRGESEETGSSEGAPSLLPATRAPEGTRELEAPSEDNSGRTAPAGTSVQAQPVLPTDSASRGGVAVVPASGDCVPSPCHNGGTCLEEEEGVRCLCLPGYGGDLCDVGLRFCNPGWDAFQGACYKHFSTRRSWEEAETQCRMYGAHLASISTPEEQDFINNRYREYQWIGLNDRTIEGDFLWSDGVPLLYENWNPGQPDSYFLSGENCVVMVWHDQGQWSDVPCNYHLSYTCKMGLVSCGPPPELPLAQVFGRPRLRYEVDTVLRYRCREGLAQRNLPLIRCQENGRWEAPQISCVPRRPARALHPEEDPEGRQGRLLGRWKALLIPPSSPMPGP
B5: C12orf41 (protein, UniProt Q9H9L4 1-492, looked up)
KAT8 regulatory NSL complex …: MNRIRIHVLPTNRGRITPVPRSQEPLSCAFTHRPCSHPRLEGQEFCIKHILEDKNAPFKQCSYISTKNGKRCPNAAPKPEKKDGVSFCAEHVRRNALALHAQMKKTNPGPVGETLLCQLSSYAKTELGSQTPESSRSEASRILDEDSWSDGEQEPITVDQTWRGDPDSEADSIDSDQEDPLKHAGVYTAEEVALIMREKLIRLQSLYIDQFKRLQHLLKEKKRRYLHNRKVEHEALGSSLLTGPEGLLAKERENLKRLKCLRRYRQRYGVEALLHRQLKERRMLATDGAAQQAHTTRSSQRCLAFVDDVRCSNQSLPMTRHCLTHICQDTNQVLFKCCQGSEEVPCNKPVPVSLSEDPCCPLHFQLPPQMYKPEQVLSVPDDLEAGPMDLYLSAAELQPTESLPLEFSDDLDVVGDGMQCPPSPLLFDPSLTLEDHLVKEIAEDPVDILGQMQMAGDGCRSQGSRNSEKASAPLSQSGLATANGKPEPTSIS
B6: C1orf94 (protein, UniProt Q6P1W5 1-598, looked up)
Uncharacterized protein …: MRGGGGCVLALGGQRGFQKERRRMASGNGLPSSSALVAKGPCALGPFPRYIWIHQDTPQDSLDKTCHEIWKRVQGLPEASQPWTSMEQLSVPVVGTLRGNELSFQEEALELSSGKDEISLLVEQEFLSLTKEHSILVEESSGELEVPGSSPEGTRELAPCILAPPLVAGSNERPRASIIVGDKLLKQKVAMPVISSRQDCDSATSTVTDILCAAEVKSSKGTEDRGRILGDSNLQVSKLLSQFPLKSTETSKVPDNKNVLDKTRVTKDFLQDNLFSGPGPKEPTGLSPFLLLPPRPPPARPDKLPELPAQKRQLPVFAKICSKPKADPAVERHHLMEWSPGTKEPKKGQGSLFLSQWPQSQKDACGEEGCCDAVGTASLTLPPKKPTCPAEKNLLYEFLGATKNPSGQPRLRNKVEVDGPELKFNAPVTVADKNNPKYTGNVFTPHFPTAMTSATLNQPLWLNLNYPPPPVFTNHSTFLQYQGLYPQQAARMPYQQALHPQLGCYSQQVMPYNPQQMGQQIFRSSYTPLLSYIPFVQPNYPYPQRTPPKMSANPRDPPLMAGDGPQYLFPQGYGFGSTSGGPLMHSPYFSSSGNGINF

What follows are molecules tested against T1, HCV ORFs (Gal4-DB fusions) (Hepatitis C virus genotype 1b, UniProt Q9WMX2) (assay: not given). Details: HCV protein CORE as bait; human protein as prey.
T1 construct: expressed in transfected cells; host or cells: Saccharomyces cerevisiae MAV203 (IMAP1) / AH109 (IMAP2)
Assay type: binding, HCV genotype 1b, isolate con1
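Wherever Y2H matrices is given: yeast two-hybrid pairwise tests of interactions first found in Y2H screens of HCV bait proteins against human cDNA libraries.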

Molecule | IMAP Y2H IMAP1 (number of IST)
B1 | 1
B2 | 1

Same assay, conditions: HCV protein NS3 as bait; human protein as prey

Molecule | IMAP Y2H IMAP1 (number of IST)
B3 | 4
B4 | 2
B5 | 1
B6 | 1

These molecules were tested on HCV ORFs (Gal4-DB fusions) (assay: not given). Details: human protein listed by gene symbol; the value names the HCV protein it interacts with.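 Further: yeast two-hybrid screens using HCV genotype 1b proteins fused to Gal4-DB as baits against prey cDNA libraries from human spleen and foetal brain, IMAP1 via transformation and IMAP2 via mating.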
Assay type: binding, HCV genotype 1b, isolate con1

Molecule | Interaction with viral protein
B3 | NS3
B1 | CORE
B4 | NS3
B2 | CORE
B5 | NS3
B6 | NS3

The molecules below were run against T2, HCV proteins (Hepatitis C virus genotype 1b, UniProt Q9WMX2) (assay: Validation by Y2H pairwise matrices). Details: validation of interaction with HCV protein CORE.
T2 construct: expressed in transfected cells
Assay type: binding

Molecule | Y2H matrices
B1 | +
B2 | +

Same assay, conditions: validation of interaction with HCV protein NS3

Molecule | Y2H matrices
B3 | +
B4 | +
B5 | +
B6 | +
